One molecule from patent US20220064329A1 (Novo Nordisk, published 2022) can be followed below.

The term Kd denotes a measure of binding affinity in units of concentration. A lower Kd goes with a tighter complex.

One experiment has as its target T1, FVII(a) variant P251A (human, UniProt P08709 61-466).
T1 construct: hFVII alanine variant in cell culture supernatant
T1 sequence: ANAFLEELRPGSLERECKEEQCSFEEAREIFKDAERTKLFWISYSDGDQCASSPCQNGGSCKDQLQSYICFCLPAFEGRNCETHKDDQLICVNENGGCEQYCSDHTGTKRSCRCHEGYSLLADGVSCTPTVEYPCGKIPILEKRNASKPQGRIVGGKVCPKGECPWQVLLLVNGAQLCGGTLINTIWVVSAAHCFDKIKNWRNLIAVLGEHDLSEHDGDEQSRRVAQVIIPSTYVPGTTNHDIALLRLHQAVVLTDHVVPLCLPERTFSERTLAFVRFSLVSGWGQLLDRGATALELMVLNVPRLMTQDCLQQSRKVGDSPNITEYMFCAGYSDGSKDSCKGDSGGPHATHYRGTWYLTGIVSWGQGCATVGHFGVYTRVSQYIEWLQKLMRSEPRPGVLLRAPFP
The experiment can be described thus: SPR, Biacore T200, 25 C; FVII(a) variant captured on anti-Gla Ab 4F6, mAb0842(OA) injected.

The target in the next experiment is T2, FVII(a) variant N184A (human, UniProt P08709 61-466).
T2 construct: hFVII alanine variant in cell culture supernatant
T2 sequence: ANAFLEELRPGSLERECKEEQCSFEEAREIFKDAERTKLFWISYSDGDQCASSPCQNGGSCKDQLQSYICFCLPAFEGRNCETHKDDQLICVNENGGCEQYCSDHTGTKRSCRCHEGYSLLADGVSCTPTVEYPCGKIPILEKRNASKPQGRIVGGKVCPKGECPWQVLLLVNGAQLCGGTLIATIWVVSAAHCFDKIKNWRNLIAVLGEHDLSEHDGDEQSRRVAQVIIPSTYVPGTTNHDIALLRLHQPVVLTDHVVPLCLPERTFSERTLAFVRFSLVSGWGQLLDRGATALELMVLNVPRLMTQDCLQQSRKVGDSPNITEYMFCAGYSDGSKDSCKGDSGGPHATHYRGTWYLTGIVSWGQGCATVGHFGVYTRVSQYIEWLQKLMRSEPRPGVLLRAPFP
The description is as above.

B1: mAb0842(OA) (antibody, human IgG4 S228P, kappa)
heavy: QVQLQESGPGLVKPSQTLSLTCTVSGYSISSDSAWSWIRQPPGKGLEWIGYIQYSGSTNYNPSLKSRVTISRDTSKNQFSLKLSSVTAADTAVYYCARSVNYYGNSFAVGYWGQGTLVTVSSASTKGPSVFPLAPCSRSTSESTAALGCLVKDYFPEPVTVSWNSGALTSGVHTFPAVLQSSGLYSLSSVVTVPSSSLGTKTYTCNVDHKPSNTKVDKRVESKYGPPCPPCPAPEFLGGPSVFLFPPKPKDTLMISRTPEVTCVVVDVSQEDPEVQFNWYVDGVEVHNAKTKPREEQFNSTYRVVSVLTVLHQDWLNGKEYKCKVSNKGLPSSIEKTISKAKGQPREPQVYTLPPSQEEMTKNQVSLSCAVKGFYPSDIAVEWESNGQPENNYKTTPPVLDSDGSFFLVSRLTVDKSRWQEGNVFSCSVMHEALHNHYTQKSLSLSLGK
light: EIVLTQSPATLSLSPGERATLSCRASQGISDYLHWYQQKPGEAPRLLIKYTSQPATGIPARFSGSGSGTDFTLTISSLEPEDFAVYYCQNGHSFPLTFGQGTKLEIKRTVAAPSVFIFPPSDEQLKSGTASVVCLLNNFYPREAKVQWKVDNALQSGNSQESVTEQDSKDSTYSLSSTLTLSKADYEKHKVYACEVTHQGLSSPVTKSFNRGEC
chain: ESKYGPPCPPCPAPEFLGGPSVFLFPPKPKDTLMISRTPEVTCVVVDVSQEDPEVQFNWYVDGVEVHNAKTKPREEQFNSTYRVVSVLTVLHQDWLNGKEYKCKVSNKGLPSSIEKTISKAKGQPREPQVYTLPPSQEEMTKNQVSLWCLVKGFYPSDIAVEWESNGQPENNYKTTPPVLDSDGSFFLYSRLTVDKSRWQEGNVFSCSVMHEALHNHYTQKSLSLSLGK
notes: also called monovalent humanized 11F2 antibody; one-armed anti-FVII(a) antibody
Regarding B1, the figures for the Kd with FVII(a) variant P251A and with FVII(a) variant N184A were 0.85 nM and 1.91 nM, respectively.
